Data reported in patent US20210292393A1.
Values joined by “and” are separate entries in the source; they are usually repeats but may differ in a detail not shown here. Identical values can stand only once.

Tests used:
Conditions in all cases: remark: other sources report otherwise
[1] = biological target: T1, SARS-CoV-2 full length spike protein (wild type) (SARS-CoV-2), P0DTC2
[2] = biological target: T1, SARS-CoV-2 full length spike protein …; remark: listed apart in the source
[3] = biological target: SARS-CoV-2 spike (S) protein (SARS-CoV-2), P0DTC2
[4] = biological target: SARS-CoV-2 full length spike protein (wild type), conjugated to beads (SARS-CoV-2), P0DTC2
[5] = biological target: SARS-CoV-2 full length spike protein (wild-type) (SARS-CoV-2), P0DTC2
[6] = biological target: SARS-CoV-2 full length spike protein, wild type, expressed on the surface of transiently transfected CHO cells (SARS-CoV-2), P0DTC2
[7] = biological target: SARS-CoV-2 spike protein (SARS-CoV-2), P0DTC2
[8] = biological target: SARS-CoV-2 spike (S) protein, full length, wild type (SARS-CoV-2), P0DTC2
[9] = biological target: SARS-CoV-2 full length spike protein (wild type), expressed on the surface of transiently transfected CHO cells (SARS-CoV-2), P0DTC2

B1: antibody 279 (antibody, V domains shown)
VH: EVQLLESGGGLVQPGGSLRLSCAASGFTFSSYAMSWVRQAPGKGLEWVSTISGSGGNTYYADSVKGRFTISRDNSKNTLYLQMNSLRAEDTAVYYCAKDLFQGLYYGSGEFDYWGQGTLVTVSS
VL: QSALTQPASVSGSPGQSITISCTGTSSDVGAYNYVSWYQQHPGKAPKLMIYGVSNRPSGVSNRFSGSKSGNTASLTISGLQAEDEADYYCSSYTSSSTRVFGTGTKVTVL
- binding signal, bead assay (fold over isotype) [1]: 3.09 and 1.36 and 1.11
- median fluorescence intensity, fold over isotype control (fold over isotype) [2]: 8.59 and 3.84
- Kd [3]: 52300 pM
- koff [3]: 0.00195 s⁻¹
- kon [3]: 37300 M⁻¹ s⁻¹

B2: antibody 392 (antibody, V domains shown)
VH: QVQLQESGPGLVKPSGTLSLTCAVSGGSISSSNWWSWVRQPPGKGLEWIGEIYHSGSTNYNPSLKSRVTISVDKSKNQFSLKLSSVTAADTAVYYCARGWRATLYGMDVWGQGTTVTVSS
VL: QSALTQPASVSGSPGQSITISCTGTSSDVGSYNLVSWYQQHPGKAPKLMIYEVSKRPSGVSNRFSGSKSGNTASLTISGLQAEDEADYYCCSYAGSSTWVFGGGTKLTVL
- binding signal, bead assay (fold over isotype) [4]: 509

B3: antibody 413 (antibody, V domains shown)
VH: EVQLVESGGGLIQPGGSLRLSCAASGFTVSGNYMNWVRQAPGKGLEWVSVIYSGGSTYYADSVKGRFTISRANSKNTLYLQMNSLRAEDTAVYYCASTSLVRGLIILYYYGMDVWGQGTTVTVSS
VL: QSALTQPASVSGSPGQSITISCTGTSSDVGGYNYVSWYQQHPGKAPKLMIYEVSNRPSGVSNRFSGSKSGNTASLTISGLQAEDEADYYCSSYTSSSTLVFGGGTKLTVL
- Binding to Wild-Type SARS-CoV-2 (Bead Assay) [5]: 969 and 367 and 416
- median fluorescence fold over isotype control (fold over isotype) [6]: 1.11
- Kd [7]: < 33.8 pM
- koff [7]: < 1e-05 s⁻¹
- kon [7]: 296000 M⁻¹ s⁻¹

B4: antibody 390 (antibody, V domains shown)
VH: EVQLVESGGGLIQPGGSLRLSCAASGFTVSSNYMSWVRQAPGKGLEWVSIIYSGGSTYYADSVKGRFTISRDNSKNTLYLQMNSLRAEDSAVYSCATTMVRGLIISYYYGMDVWGQGTTVTVSS
VL: QSALTQPASVSGSPGQSITISCTGTSSDVGGYNYVSWYQQHPGKAPKLMIYEVSNRPSGVSNRFSGSKSGNTASLTISGLQAEDEADYYCSSYTSSSTLVFGGGTKLTVL
- binding signal, bead assay (fold over isotype) [4]: 637 and 341 and 318
- median fluorescence fold over isotype control (fold over isotype) [6]: 0.73
- Kd [7]: 153 pM
- koff [7]: 1.97e-05 s⁻¹
- kon [7]: 129000 M⁻¹ s⁻¹

B5: anti-SARS-CoV-2 antibody 485 (antibody, V domains shown)
VH: QVQLQESGPGLVKPSGTLSLTCAVSGASISSSNWWSWVRQPPGKGLEWIGEIYHSGSTNYNPSLKSRVTISVDKSKNQFSLKLSSVTAADTAVYYCARRSYYGSGSYYPFDYWGQGTLVTVSS
VL: QSALTQPASVSGSPGQSITISCTGTSSDVGSYNLVSWYQQHPGKAPKLMIYEGRKRPSGVSNRFSGSKSGNTASLTISGLQAEDEADYYCCSYAGSSTYVFGTGTKVTVL
- median fluorescence fold over isotype (fold over isotype) [8]: 510

B6: antibody 389 (antibody, V domains shown)
VH: QVQLVESGGGVVQPGRSLRLSCAASGFTFSSYAMHWVRQAPGKGLEWVAVISYDGSNKYYADSVKGRFTISRDNSKNTLYLQMNSLRAEDTAVYYCASQGRMYVRGVDYGVYWGQGTLVTVSS
VL: NFMLTQPHSVSESPGKTVTISCTGSSGSIASNYVQWYQQRPGSAPTTVIYEDNQRPSGVPDRFSGSIDSSSNSASLTISGLKTEDEADYYCQSYDSSKISHAVFGGGTQLTVL
- median fluorescence fold over isotype control (fold over isotype) [6]: 0.72
- Kd [7]: < 22.2 pM
- koff [7]: < 1e-05 s⁻¹
- kon [7]: 450000 M⁻¹ s⁻¹

B7: anti-SARS-CoV-2 antibody 499 (antibody, V domains shown)
VH: EVQLVESGGGLVKPGGSLRLSCAASGFTFSSYSMNWVRQAPGKGLEWVSSISSSSSYIYYADSVKGRFTISRDNAKNSLYLQMNSLRAEDTAVYYCARAPAGIVVGPDYWGQGTLVTVSS
VL: NFMLTQPHSVSESPGKTVTISCTGSSGSIASNYVQWYQQRPGSAPTTVIFEDNQRPSGVPDRFSGSIDSSSNSASLTISGLKTEDEADYYCQSYHSSNPHVVFGGGTKLTVL
- median fluorescence fold over isotype (fold over isotype) [8]: 1120 and 386 and 432

B8: antibody 472 (antibody, V domains shown)
VH: EVQLVESGGGLIQPGGSLRLSCAASGFTVSSNYMSWVRQAPGKGLEWVSVIYSGGTTHYADSVKGRFTISRDNSKNTLYLQMNSLRAEDTAVYYCANYGMDVWGQGTTVTVSS
VL: SYELTQPSSVSVSPGQTARITCSGDVLAKKYARWFQQKPGQAPVLVIYKDSERPSGIPERFSGSSSGTTVTLTISGAQVEDEADYYCYSAADKVFGGGTKLTVL
- median fluorescence intensity, fold over isotype control (fold over isotype) [9]: 0.91
- Kd [7]: < 469 pM
- koff [7]: < 1e-05 s⁻¹
- kon [7]: 21300 M⁻¹ s⁻¹

B9: anti-SARS-CoV-2 antibody 495 (antibody, V domains shown)
VH: QITLKESGPTLVKPTQTLTLTCTFSGFSLSTSGVGVGWIRQPPGKALEWLALIYWDDDKRYSPSLKSRLTITKDTSKNQVVLIMTNMDPVDTATYYCAHRDSSSWFDLDAFDIWGQGTMVIVSS
VL: QSVLTQPPSVSEAPRQRVTISCSGSSSNIGNNAVNWYQQLPGKAPKLLIYYDDLLPSGVSDRFSGSKSGTSASLAISGLQSEDEADYYCAAWDDRLNGPVFGGGTKLTVL
- median fluorescence fold over isotype (fold over isotype) [8]: 1090 and 384 and 530

B10: antibody 452 (antibody, V domains shown)
VH: QVQLVESGGGLVKPGGSLRLSCAASGFTFSDYYLSWIRQAPGKGLEWVSYISSSGSNIYYADSVKGRFTISRDNAKNSLYLQMNSLRADDTAVFYCARAGRYCSGGSCRVEYFQHWGQGTLVTVSS
VL: SYELTQPPSVSVSPGQTARITCSGDALPKQYAYWYQQKPGQAPVLVIYKDNERPSGIPERFSGSSSGTTATLTISGVQAEDEADYYCQSADSSGTVVFGGGTKLTVL
- Binding to Wild-Type SARS-CoV-2 (Bead Assay) [5]: 854
- median fluorescence intensity, fold over isotype control (fold over isotype) [9]: 26.8

B11: antibody 396 (antibody, V domains shown)
VH: QVQLQQWGAGLLKPSETLSLTCAVYGGSFSGYYWSWIRQPPGKGLEWIGEIIHSGSTNYNPSLKSRVTISVDTSKNQFSLKLSSVTAADTAVYYSARRTGLLWFREGSYYFDYWGQGTLVTVSS
VL: DIQMTQSPSSLSASVGDRVTITCRASQGIRNDLGWYQQKPGKAPKRLIYAASSLQSGVPSRFSGSGSGTEFTLTISSLQPEDFATYYCLQHNSYPLTFGGGTKVEIK
- binding signal, bead assay (fold over isotype) [4]: 553
